Measured values taken from patent publication US20060003399A1, “High throughput actin polymerization assay” (Cytokinetics, Inc., priority 2004, published 2006).
Entries after “also recorded” stand apart in the source; their conditions may differ. Like-named read-outs stand apart in the source and are kept apart here.

B1: His6 tagged C. albicans FH1-FH2 domain: C. albicans FOR1 M972 to K1598 (FH1 and FH2 domains), C-terminally tagged with His6 (protein)
chain: MDPKFLQELSLKVGKAEPIQDANNKNQFGGPLSSSPEDVSQKHKTSGDSSDKDKVLSSPISSNDIKSPETGNSTTSSAAPPPPPPPPPPPPPPLPPILGGNNSSAAPPPPPPPPPPPAFLNGSGSVIPPAPPLPPPSSGRSSRSVPSTVTKSSGSAFDKIPRPKKKLKQLHWEKIDHSQVGNSFWNDPNTHTLVDDLMSKGIFDEIELIFAAKEAKKLATKKKEDLDKVTFLARDISQQFSINLHAFNSFSDEEFVLKVLRCDKDVLTNPAVLDFFGKEDIVEITNTLARNFEPYSTDYKTEEITKPEKDPNELQRPDRIYLELMYNLQHYWKSRTRALNVVVNYDKDVYEYVKKLRLIDEAVDSIKNSKHLKGVFEIILAVGNYMNDSAKQAHGFKLSSLQRLSFMKDEKNSMTFLHYVEKVIRTQYPEFLEFINELSCCNEITKFSIENINNDCKEYARAIKNVQSSIDIGNLSDVSKFHPSDRVLKAVLPALPRAKRKAELLLDQANYTMKEFDDLMKYFGEDPTDQFVKNSFISKFTDFMKDFKRVQAENIKREEELRVYEQRKKLLEKPKSSNNGDSNASDQDGESNEGDGGVMDSLLQRLKAAAPTKGESASARKKALMRK
modifications: left off: small tags and cut ends
B2: GST tagged C. albicans FH1-FH2 domain: C. albicans FOR1 M972 to K1598 (FH1 and FH2 domains), N-terminally tagged with GST-TEV (protein)
chain: B1 chain
modifications: left off: a dimerising Fc or GST
notes: C. albicans FOR1 M972 to K1598 (FH1 and FH2 domains), N-terminally tagged with GST-TEV
B3: GST tagged C. albicans FH2 domain: C. albicans FOR1 A1127 to K1598 (FH2 domain only), N-terminally tagged with GST-TEV (protein)
chain: AFDKIPRPKKKLKQLHWEKIDHSQVGNSFWNDPNTHTLVDDLMSKGIFDEIELIFAAKEAKKLATKKKEDLDKVTFLARDISQQFSINLHAFNSFSDEEFVLKVLRCDKDVLTNPAVLDFFGKEDIVEITNTLARNFEPYSTDYKTEEITKPEKDPNELQRPDRIYLELMYNLQHYWKSRTRALNVVVNYDKDVYEYVKKLRLIDEAVDSIKNSKHLKGVFEIILAVGNYMNDSAKQAHGFKLSSLQRLSFMKDEKNSMTFLHYVEKVIRTQYPEFLEFINELSCCNEITKFSIENINNDCKEYARAIKNVQSSIDIGNLSDVSKFHPSDRVLKAVLPALPRAKRKAELLLDQANYTMKEFDDLMKYFGEDPTDQFVKNSFISKFTDFMKDFKRVQAENIKREEELRVYEQRKKLLEKPKSSNNGDSNASDQDGESNEGDGGVMDSLLQRLKAAAPTKGESASARKKALMRK
modifications: left off: a dimerising Fc or GST
notes: C. albicans FOR1 A1127 to K1598 (FH2 domain only), N-terminally tagged with GST-TEV
B4: 98 N-WASP: amino acids 98-501 of SEQ ID NO:4 (protein, listed as Homo sapiens)
chain: FVYNSPRGYFHTFAGDTCQVALNFANEEEAKKFRKAVTDLLGRRQRKSEKRRDPPNGPNLPMATVDIKNPEITTNRFYGPQVNNISHTKEKKKGKAKKKRLTKADIGTPSNFQHIGHVGWDPNTGFDLNNLDPELKNLFDMCGISEAQLKDRETSKVIYDFIEKTGGVEAVKNELRRQAPPPPPPSRGGPPPPPPPPHNSGPPPPPARGRGAPPPPPSRAPTAAPPPPPPSRPSVAVPPPPPNRMYPPPPPALPSSAPSGPPPPPPSVLGVGPVAPPPPPPPPPPPGPPPPPGLPSDGDHQVPTTAGNKAALLDQIREGAQLKKVEQNSRPVSCSGRDALLDQIRQGIQLKSVADGQESTPPTPAPTSGIVGALMEVMQKRSKAIHSSDEDEDEDDEEDFEDDD
modifications: (1)..(505) FL-N-WASP
B5: 105WASP: amino acids 105-501 of SEQ ID NO:2; WASP lacking the WH1 domain (protein, listed as Homo sapiens)
chain: LVYSTPTPFFHTFAGDDCQAGLNFADEDEAQAFRALVQEKIQKRNQRQSGDRRQLPPPPTPANEERRGGLPPLPLHPGGDQGGPPVGPLSLGLATVDIQNPDITSSRYRGLPAPGPSPADKKRSGKKKISKADIGAPSGFKHVSHVGWDPQNGFDVNNLDPDLRSLFSRAGISEAQLTDAETSKLIYDFIEDQGGLEAVRQEMRRQEPLPPPPPPSRGGNQLPRPPIVGGNKGRSGPLPPVPLGIAPPPPTPRGPPPPGRGGPPPPPPPATGRSGPLPPPPPGAGGPPMPPPPPPPPPPPSSGNGPAPPPLPPALVPAGGLAPGGGRGALLDQIRQGIQLNKTPGAPESSALQPPPQSSEGLVGALMHVMQKRSRAIHSSDEGEDQAGDEDEDDEWD
modifications: (1)..(502) FL-WASP
B6: WASP VCA Domain: VCA domain of WASP (SEQ ID NO:6) (protein, listed as Homo sapiens)
chain: GGRGALLDQIRQGIQLNKTPGAPESSALQPPPQSSEGLVGALMHVMQKRSRAIHSSDEGEDQAGDEDEDDEWDD
modifications: (1)..(74) WASP VCA Domain

Assays:
actin = target: T1, actin (Gallus gallus, UniProt P68139); test: Formin nucleated actin/pyrene-actin polymerization assay; format: biochemical, chicken
T1 construct: from tissue
Protocol: G-Actin: Typically chicken actin was used. G-actin can be purchased from Cytoskeleton, Inc. It can also be purified according to Pardee and Spudich (1982) Methods of Cell Biol. 24:271-89, and subsequently gel filtered as discussed by MacLean-Fletcher and Pollard (1980) Biochem Biophys. Res. Commun. 96:18-27.
Acrylodan-Actin and Pyrene-Actin: Typically chicken actin was utilized. Pyrene labeled actin was prepared according to methods described in Kouyama and Mihashi (1981) Eur. J. Biochem. 114:33-38 or as described by Cooper et al. (1983) J. Muscle Res. Cell Motility 4:253-62. Alternatively, it can be purchased from Cytoskeleton, Inc. Acrylodan-labeled actin was prepared by modification of the pyrene-labeling protocol described in Cooper et al. (1983) J. Muscle Res. Cell Motility 4:253-62.
G-actin and pyrene-actin were prepared as described in Example 7.
Activity of purified formins from the constructs described above in Example 12 was assessed in an actin/pyrene-actin polymerization assay. Polymerization was carried out in G-buffer and was initiated by addition of 10× polymerization mix.
Gel filtered actin and pyrene-actin were diluted in G-buffer to the indicated final concentrations. Either purified C. albicans formin domains or formin domain-enriched fractions were added together with polymerization mix to start actin polymerization. Formin nucleated actin polymerization was monitored on a Gemini plate reader (excitation at 365 nm and emission at 407 nm). Protein components in the actin polymerization assay are provided below.

[1] = Storage stability of purified formin proteins at -80 C; format: physicochemical; settings: storage at −80° C.
Protocol: The formins were purified on either Ni-NTA column (His6 tagged proteins) or Gluthatione-Sepharose (GST tagged proteins). Resins were equilibrated with lysis buffer. Clear crude extracts were loaded onto column, columns were washed with lysis buffer followed by washing buffer (50 mM Tris pH 8.0, 50 mM KCl, 1 mM DTT, 1 mM MgCl, 3% glycerol), and proteins were eluted with either 300 mM imidazole (His6-tagged proteins) or 10 mM glutathione (GS-tagged proteins). Eluted proteins were analyzed by SDS PAGE (4-20%) (Invitrogen, San Diego Calif.), fractions were pooled and protein concentrations were measured by Coomassie Plus (Bradford)(Bio-Rad, Hercules, Calif.). Purified proteins were “drop-frozen” in liquid nitrogen and stored at −80° C.

Arp2/3 = test: Activities of WASP/N-WASP proteins (Table 4); format: biochemical
Description: The term “variant” or “analogue” generally refers to proteins that are functional equivalents to a native sequence that have similar amino acid sequences and retain, to some extent, one of the activities of the corresponding native protein. Variants/analogues include fragments that retain one or more activities of the corresponding native protein. Examples of WASP and N-WASP activity include, but are not limited to, capacity to: 1) bind Arp2/3 and actin; 2) activate the actin nucleation activity of Arp2/3 (descriptions of assays to detect nucleation activity are provided below); 3) bind an upstream regulator; 4) be regulated by one or more upstream regulators, thereby rendering the WASP or N-WASP protein able to activate the nucleation activity of Arp2/3; and 5) bind downstream regulators initiating signal transduction cascades. Some of the WASP and N-WASP proteins that are provided are able to recapitulate the full activity of WASP or N-WASP, which means that these proteins have all five of the activities just listed. […]
A third class of NPF proteins that can be utilized in some assays include WASP, N-WASP and SCAR proteins that include the WH1 domain but in which the PolyPro region is (e.g., deleted). A fourth class of NPF proteins that can be utilized in some assays are WASP, N-WASP and SCAR deletion mutants in which the PolyPro region is maintained but an N-terminal region (e.g., WH1 domain) is at least partially removed. Some proteins in this class are ones that include the B, CRIB/GBD (WASP and N-WASP), PolyPro and VCA domains, but in which some or all of the WH1 has been removed. One specific example is 98N-WASP, which includes amino acids 98-501 of SEQ ID NO:4. Another specific example is the 105WASP protein, which includes amino acids 105-501 of SEQ ID NO:2 (see FIG. 4B).
As indicated in this table, specific examples of fusion proteins that can be utilized include those that include a segment that encodes full-length WASP or N-WASP, including: Myc-WASP-TAP (SEQ ID NO:14); and Myc-N-WASP-TAP (SEQ ID NO: 16). Examples of fusion proteins that include a WASP or N-WASP deletion mutant domain include: GST-105WASP (SEQ ID NO:18); Myc-105WASP-TAP (SEQ ID NO:20); GST-tev-98N-WASP (SEQ ID NO:22); and Myc-98N-WASP-TAP (SEQ ID NO:24). The TAP tag in these particular fusion proteins has the general structure CBP-tev-ProtA (SEQ ID NO:36). Fusion proteins such as those listed in Table 4 can in some instances be utilized directly, or after one or both of the C- and N-terminal tags are removed. For example, the fusion proteins listed in Table 4 as having a TAP tag can be used once the TAP tag has been cleaved off and/or after the C-terminal tag has been removed.

Molecule	time stable at −80° C. [1]	Activate Arp2/3? (Arp2/3)	Regulated By Which Upstream Regulators? (Arp2/3)	other results
B1	several	–	–	formin concentration used to observe saturation (actin): 300 to 500 nM; actin nucleation activity of the formin (in words) (actin; actin […], pyrene actin 0.5 μM): active, i.e., nucleates actin polymerization
B2	more than 6 months	–	–	biochemical properties compared with the other formin constructs (in words) (actin): best biochemical properties in terms of solubility, stability and activity; lag phase (actin; 100 nM formin): less than 100 s; time to reach saturation phase (actin; 100 nM formin): 400 s; activity relative to the formin purified in the single step purification (actin; after further purification on SP Sepharose): approximately 3 fold
B3	several	–	–	–
B4	–	Yes	Cdc42, PIP2, Nck and Rac1	Activate Arp2/3? (Arp2/3; listed as 98N-WASP): activate actin nucleation by Arp2/3; Regulated By Which Upstream Regulators? (Arp2/3; listed as 98N-WASP): regulated by Cdc42, PIP2, Nck1, and Rc1
B5	–	activate actin nucleation by Arp2/3 and Yes	regulated by Cdc42, PIP2, Nck1, and Rc1; also recorded: Cdc42, PIP2, Nck and Rac1	–
B6	–	Yes	None	–
